# Publication PMC6895263
# Where two headings read alike, the source gives them in different places.
# T1: ZBTB24 ZF4-8 (Mus musculus, UniProt Q80X44 375-519)
# T1 sequence: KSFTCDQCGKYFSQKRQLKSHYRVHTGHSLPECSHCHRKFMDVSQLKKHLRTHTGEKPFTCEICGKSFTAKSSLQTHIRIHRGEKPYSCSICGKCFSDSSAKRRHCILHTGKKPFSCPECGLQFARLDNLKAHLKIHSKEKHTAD
# T2: GST-ZBTB24 ZF1-8 C407G (Mus musculus, UniProt Q80X44 288-519, C407G)
# T2 sequence: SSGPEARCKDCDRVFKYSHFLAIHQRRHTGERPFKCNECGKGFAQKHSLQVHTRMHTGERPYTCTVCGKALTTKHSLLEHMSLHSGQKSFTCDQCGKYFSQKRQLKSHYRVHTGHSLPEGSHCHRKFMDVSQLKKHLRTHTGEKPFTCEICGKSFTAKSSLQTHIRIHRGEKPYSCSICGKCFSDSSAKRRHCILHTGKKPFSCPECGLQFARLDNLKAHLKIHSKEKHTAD
# T3: GST-ZBTB24 ZF1-8 C382Y (Mus musculus, UniProt Q80X44 288-519, C382Y)
# T3 sequence: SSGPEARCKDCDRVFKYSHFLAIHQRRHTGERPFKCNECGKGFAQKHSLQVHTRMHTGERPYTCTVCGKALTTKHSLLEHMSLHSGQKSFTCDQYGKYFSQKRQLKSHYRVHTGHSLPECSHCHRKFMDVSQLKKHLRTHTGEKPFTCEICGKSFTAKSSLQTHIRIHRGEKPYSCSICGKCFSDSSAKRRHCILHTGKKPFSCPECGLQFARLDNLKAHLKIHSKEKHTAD
# What was measured:
# ZBTB24 ZF4-8 [1] = biological target: T1, ZBTB24 ZF4-8; assay: X-ray crystallography
# ZBTB24 ZF4-8 [2] = biological target: T1, ZBTB24 ZF4-8; assay: X-ray crystallography; remark: listed apart in the source
# GST-ZBTB24 ZF1-8 C407G = biological target: T2, GST-ZBTB24 ZF1-8 C407G; assay: EMSA
# GST-ZBTB24 ZF1-8 C382Y = biological target: T3, GST-ZBTB24 ZF1-8 C382Y; assay: EMSA
binder,measurement,setting,value
TG oligo (6ML2) (dsDNA) DNA 1: TTTAGCTGCCAGGACCTGCG DNA 2: ACGCAGGTCCTGGCAGCTAA,binding result,ZBTB24 ZF4-8 [1],binds
GT oligo (6ML4) (dsDNA) DNA 1: TGCTTCGTCCAGGACCTGCG DNA 2: ACGCAGGTCCTGGACGAAGC,binding result,ZBTB24 ZF4-8 [2],binds
TT oligo (6ML3) (dsDNA) DNA 1: TTTAGCTTCCAGGACCTGCG DNA 2: ACGCAGGTCCTGGAAGCTAA,binding result,ZBTB24 ZF4-8 [1],binds
EMSA probe with ZBTB24 motif (dsDNA) DNA 1: TCCACTGCCAGGACCTTT DNA 2: AAAAGGTCCTGGCAGTGG,binding result,GST-ZBTB24 ZF1-8 C407G,no binding
same,binding result,GST-ZBTB24 ZF1-8 C382Y,no binding
